Test results as given in patent publication US20240390520A1, “GENE EDITING OF PCSK9 OR ANGPTL3 AND COMPOSITIONS AND METHODS OF USING SAME FOR TREATMENT OF DISEASE” (Verve Therapeutics, Inc., priority 2021, published 2024).

System: OT1 site
Test: Off-target OT1 editing, MessengerMax transfection in PHH, Targeted Amplicon sequencing
Type: cell-based, human
Conditions: PHH lot STL, MessengerMax with mRNA MA079, 5,000 and 2,500 ng/mL total RNA
Experimental: The genomic DNA from PHH cells transfected with one of 20 sgRDNA spacer sequence variants were also tested for off-target editing percentage by targeted amplicon sequencing (FIGS. 31-32). The genomic DNA samples assessed were from cells that received doses of the total RNA of 5,000 ng/mL and 2,500 ng/mL. OT1 primer (GA0100_OT_B2) was used to measure editing percentage (A>G) in position 1-10 of the OT1 site (Table. 4). Technical replicates were performed.
Table. […] VEP Gene and VEP Consequence refer to the genomic location and functional role of OT1 as determined by the Ensembl Variant Effect Predictor (VEP) tool v98.3. […] The CADD score was determined using the Combined Annotation-Dependent Depletion v1.6 (CADD) framework, which aims to annotate and interpret human genetic variation through the integration of diverse annotations into a single measure. […] To bioinformatically assess the potential for oncogenesis due to editing at the off-target site, it was assessed whether OT1 is located within a gene in the Cancer Gene Census of the Catalogue of Somatic Mutations in Cancer (COSMIC) v92; it is not. […]

B1: GA690: ANGPTL3 sgRDNA spacer sequence variant with minimally modified tracrRNA (nucleic acid)
guide: AAGATACCTGAATAACCCTCGTTTTAGAGCTAGAAATAGCAAGTTAAAATAAGGCTAGTCCGTTATCAACTTGAAAAAGTGGCACCGAGTCGGTGCTTTT
modifications: DNA-containing spacer with minimally modified tracrRNA, spacer pattern not given here
For B1, the “off-target editing (A>G) at OT1, positions 1-10” value was “indeed edited at OT1”.
